Laboratory results taken from publication PMC10540216, “Activity Guided Azide-methyllysine Photo-trapping for Substrate Profiling of Lysine Demethylases” (Journal of the American Chemical Society, 2023).

Test system: KDM4A-I71AzF
Assay: CASI: photo-crosslinking with HEK293T cell extracts, StrepTactin enrichment and LC-MS/MS proteomics;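 further: lysates from HEK293T cells pretreated with a KDM4 inhibitor to raise proteome methylation, affinity-purified after ±UV, gel-resolved, trypsin-digested, with exclusive unique peptides per protein averaged per condition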
Format: binding, human
Conditions: sheet "Final results but with 0.01"

Row | Molecule | Fold change (+UV/-UV)
1 | HXK2_HUMAN (protein, UniProt P52789 1-917, looked up) Hexokinase-2: MIASHLLAYFFTELNHDQVQKVDQYLYHMRLSDETLLEISKRFRKEMEKGLGATTHPTAAVKMLPTFVRSTPDGTEHGEFLALDLGGTNFRVLWVKVTDNGLQKVEMENQIYAIPEDIMRGSGTQLFDHIAECLANFMDKLQIKDKKLPLGFTFSFPCHQTKLDESFLVSWTKGFKSSGVEGRDVVALIRKAIQRRGDFDIDIVAVVNDTVGTMMTCGYDDHNCEIGLIVGTGSNACYMEEMRHIDMVEGDEGRMCINMEWGAFGDDGSLNDIRTEFDQEIDMGSLNPGKQLFEKMISGMYMGELVRLILVKMAKEELLFGGKLSPELLNTGRFETKDISDIEGEKDGIRKAREVLMRLGLDPTQEDCVATHRICQIVSTRSASLCAATLAAVLQRIKENKGEERLRSTIGVDGSVYKKHPHFAKRLHKTVRRLVPGCDVRFLRSEDGSGKGAAMVTAVAYRLADQHRARQKTLEHLQLSHDQLLEVKRRMKVEMERGLSKETHASAPVKMLPTYVCATPDGTEKGDFLALDLGGTNFRVLLVRVRNGKWGGVEMHNKIYAIPQEVMHGTGDELFDHIVQCIADFLEYMGMKGVSLPLGFTFSFPCQQNSLDESILLKWTKGFKASGCEGEDVVTLLKEAIHRREEFDLDVVAVVNDTVGTMMTCGFEDPHCEVGLIVGTGSNACYMEEMRNVELVEGEEGRMCVNMEWGAFGDNGCLDDFRTEFDVAVDELSLNPGKQRFEKMISGMYLGEIVRNILIDFTKRGLLFRGRISERLKTRGIFETKFLSQIESDCLALLQVRAILQHLGLESTCDDSIIVKEVCTVVARRAAQLCGAGMAAVVDRIRENRGLDALKVTVGVDGTLYKLHPHFAKVMHETVKDLAPKCDVSFLQSEDGSGKGAALITAVACRIREAGQR | 0.7273
2 | CX057_HUMAN (protein, UniProt Q6NSI4 1-855, looked up) RPA-related protein RADX: MSGESGQPEAGPSHAGLDWPNPERNRAGVPGGVIRRAGSQGPRSWIQKVLEQIMDSPRQCVTPSEVVPVTVLAVQRYLLEDEPRDTVPKPPLYCYDVTISDGVYQEKCYLDPSLNSLVYQNILKVGIQMRISRVSCLYNEKRIGQGILCIDNVHCGETSDSISLETPFRNRAHQEKPERPLRGGKSHYLALWNNEDPYGDIWLTDKQPEEHNFSDTKIISLSHLEMTWTNRRNFPALLVRILHKSKLRYYGKPDKKMIEPYQTFLEVADSSGTVSVIMWNALCPEWYKSLRVGLVLLLQDYSVKKSYPFRIQPVPVDPQIKLISTMEICLNLRDPPTNIIIIPEKQVKPEWRLPKLNHRFTTRSELDDMPENCICDVIGLLVFVGRVQRSKKKENREDFWSYRWIHIADGTSEQPFIVELFSTSQPEIFENIYPMAYFVCTQLKVVRNDNQVPKLLYLTTTNESGVFITGHRGQPYTYDAKVKNFIQWIRTKSDSGEQKNMVIGGYYPYPPVPETFSKYSSSIKVESLLTAISEVRKEIEDLQYREQKRIAIQGIITAIKYIPHSSATESASASETLRNANRPSTSQAARVEIQERNGKRHQDDEPVNSQYFQTTSTNLSLSNKIRILQGPHANPVAVPQPGASVQTKGIKPGMPSIFNRRANINANLQGKARKTISDRWESQLWREKKFGLIDHLHYSRVYPESIPRKFMFEHRKFLSDQYNSQPAKYVPPEGRPPKLDDFKSARSLGHFEVTILGLNHEIAIDVAFLPMYCPEDIRTSQIDTLLTSMNYSCAYPQDTTGNDRLPGPRAVAGDIIKAATELDRVHIVGILDICNLGNNKVEVYLHKIYSPENTS | 0
3 | AT2A2_HUMAN (protein, UniProt P16615 1-1042, looked up) Sarcoplasmic/endoplasmic …: MENAHTKTVEEVLGHFGVNESTGLSLEQVKKLKERWGSNELPAEEGKTLLELVIEQFEDLLVRILLLAACISFVLAWFEEGEETITAFVEPFVILLILVANAIVGVWQERNAENAIEALKEYEPEMGKVYRQDRKSVQRIKAKDIVPGDIVEIAVGDKVPADIRLTSIKSTTLRVDQSILTGESVSVIKHTDPVPDPRAVNQDKKNMLFSGTNIAAGKAMGVVVATGVNTEIGKIRDEMVATEQERTPLQQKLDEFGEQLSKVISLICIAVWIINIGHFNDPVHGGSWIRGAIYYFKIAVALAVAAIPEGLPAVITTCLALGTRRMAKKNAIVRSLPSVETLGCTSVICSDKTGTLTTNQMSVCRMFILDRVEGDTCSLNEFTITGSTYAPIGEVHKDDKPVNCHQYDGLVELATICALCNDSALDYNEAKGVYEKVGEATETALTCLVEKMNVFDTELKGLSKIERANACNSVIKQLMKKEFTLEFSRDRKSMSVYCTPNKPSRTSMSKMFVKGAPEGVIDRCTHIRVGSTKVPMTSGVKQKIMSVIREWGSGSDTLRCLALATHDNPLRREEMHLEDSANFIKYETNLTFVGCVGMLDPPRIEVASSVKLCRQAGIRVIMITGDNKGTAVAICRRIGIFGQDEDVTSKAFTGREFDELNPSAQRDACLNARCFARVEPSHKSKIVEFLQSFDEITAMTGDGVNDAPALKKAEIGIAMGSGTAVAKTASEMVLADDNFSTIVAAVEEGRAIYNNMKQFIRYLISSNVGEVVCIFLTAALGFPEALIPVQLLWVNLVTDGLPATALGFNPPDLDIMNKPPRNPKEPLISGWLFFRYLAIGCYVGAATVGAAAWWFIAADGGPRVSFYQLSHFLQCKEDNPDFEGVDCAIFESPYPMTMALSVLVTIEMCNALNSLSENQSLLRMPPWENIWLVGSICLSMSLHFLILYVEPLPLIFQITPLNVTQWLMVLKISLPVILMDETLKFVARNYLEPGKECVQPATKSCSFSACTDGISWPFVLLIMPLVIWVYSTDTNFSDMFWS | 0.75
4 | CPSF6_HUMAN (protein, UniProt Q16630 1-551, looked up) Cleavage and polyadenylation …: MADGVDHIDIYADVGEEFNQEAEYGGHDQIDLYDDVISPSANNGDAPEDRDYMDTLPPTVGDDVGKGAAPNVVYTYTGKRIALYIGNLTWWTTDEDLTEAVHSLGVNDILEIKFFENRANGQSKGFALVGVGSEASSKKLMDLLPKRELHGQNPVVTPCNKQFLSQFEMQSRKTTQSGQMSGEGKAGPPGGSSRAAFPQGGRGRGRFPGAVPGGDRFPGPAGPGGPPPPFPAGQTPPRPPLGPPGPPGPPGPPPPGQVLPPPLAGPPNRGDRPPPPVLFPGQPFGQPPLGPLPPGPPPPVPGYGPPPGPPPPQQGPPPPPGPFPPRPPGPLGPPLTLAPPPHLPGPPPGAPPPAPHVNPAFFPPPTNSGMPTSDSRGPPPTDPYGRPPPYDRGDYGPPGREMDTARTPLSEAEFEEIMNRNRAISSSAISRAVSDASAGDYGSAIETLVTAISLIKQSKVSADDRCKVLISSLQDCLHGIESKSYGSGSRRERSRERDHSRSREKSRRHKSRSRDRHDDYYRERSRERERHRDRDRDRDRERDREREYRHR | 0.875
5 | DDX3X_HUMAN (protein, UniProt O00571 2-662, looked up) ATP-dependent RNA helicase …: SHVAVENALGLDQQFAGLDLNSSDNQSGGSTASKGRYIPPHLRNREATKGFYDKDSSGWSSSKDKDAYSSFGSRSDSRGKSSFFSDRGSGSRGRFDDRGRSDYDGIGSRGDRSGFGKFERGGNSRWCDKSDEDDWSKPLPPSERLEQELFSGGNTGINFEKYDDIPVEATGNNCPPHIESFSDVEMGEIIMGNIELTRYTRPTPVQKHAIPIIKEKRDLMACAQTGSGKTAAFLLPILSQIYSDGPGEALRAMKENGRYGRRKQYPISLVLAPTRELAVQIYEEARKFSYRSRVRPCVVYGGADIGQQIRDLERGCHLLVATPGRLVDMMERGKIGLDFCKYLVLDEADRMLDMGFEPQIRRIVEQDTMPPKGVRHTMMFSATFPKEIQMLARDFLDEYIFLAVGRVGSTSENITQKVVWVEESDKRSFLLDLLNATGKDSLTLVFVETKKGADSLEDFLYHEGYACTSIHGDRSQRDREEALHQFRSGKSPILVATAVAARGLDISNVKHVINFDLPSDIEEYVHRIGRTGRVGNLGLATSFFNERNINITKDLLDLLVEAKQEVPSWLENMAYEHHYKGSSRGRSKSSRFSGGFGARDYRQSSGASSSSFSSSRASSSRSGGGGHGSSRGFGGGGYGGFYNSDGYGGNYNSQGVDWWGN | 0.7778
6 | SND1_HUMAN (protein, UniProt Q7KZF4 2-910, looked up) Staphylococcal nuclease …: ASSAQSGGSSGGPAVPTVQRGIIKMVLSGCAIIVRGQPRGGPPPERQINLSNIRAGNLARRAAATQPDAKDTPDEPWAFPAREFLRKKLIGKEVCFTIENKTPQGREYGMIYLGKDTNGENIAESLVAEGLATRREGMRANNPEQNRLSECEEQAKAAKKGMWSEGNGSHTIRDLKYTIENPRHFVDSHHQKPVNAIIEHVRDGSVVRALLLPDYYLVTVMLSGIKCPTFRREADGSETPEPFAAEAKFFTESRLLQRDVQIILESCHNQNILGTILHPNGNITELLLKEGFARCVDWSIAVYTRGAEKLRAAERFAKERRLRIWRDYVAPTANLDQKDKQFVAKVMQVLNADAIVVKLNSGDYKTIHLSSIRPPRLEGENTQDKNKKLRPLYDIPYMFEAREFLRKKLIGKKVNVTVDYIRPASPATETVPAFSERTCATVTIGGINIAEALVSKGLATVIRYRQDDDQRSSHYDELLAAEARAIKNGKGLHSKKEVPIHRVADISGDTQKAKQFLPFLQRAGRSEAVVEYVFSGSRLKLYLPKETCLITFLLAGIECPRGARNLPGLVQEGEPFSEEATLFTKELVLQREVEVEVESMDKAGNFIGWLHIDGANLSVLLVEHALSKVHFTAERSSYYKSLLSAEEAAKQKKEKVWAHYEEQPVEEVMPVLEEKERSASYKPVFVTEITDDLHFYVQDVETGTQLEKLMENMRNDIASHPPVEGSYAPRRGEFCIAKFVDGEWYRARVEKVESPAKIHVFYIDYGNREVLPSTRLGTLSPAFSTRVLPAQATEYAFAFIQVPQDDDARTDAVDSVVRDIQNTQCLLNVEHLSAGCPHVTLQFADSKGDVGLGLVKEGLVMVEVRKEKQFQKVITEYLNAQESAKSARLNLWRYGDFRADDADEFGYSR | 1.5
7 | CALD1_HUMAN (protein, UniProt Q05682 1-793, looked up) Caldesmon: MDDFERRRELRRQKREEMRLEAERIAYQRNDDDEEEAARERRRRARQERLRQKQEEESLGQVTDQVEVNAQNSVPDEEAKTTTTNTQVEGDDEAAFLERLARREERRQKRLQEALERQKEFDPTITDASLSLPSRRMQNDTAENETTEKEEKSESRQERYEIEETETVTKSYQKNDWRDAEENKKEDKEKEEEEEEKPKRGSIGENQVEVMVEEKTTESQEETVVMSLKNGQISSEEPKQEEEREQGSDEISHHEKMEEEDKERAEAERARLEAEERERIKAEQDKKIADERARIEAEEKAAAQERERREAEERERMREEEKRAAEERQRIKEEEKRAAEERQRIKEEEKRAAEERQRIKEEEKRAAEERQRARAEEEEKAKVEEQKRNKQLEEKKHAMQETKIKGEKVEQKIEGKWVNEKKAQEDKLQTAVLKKQGEEKGTKVQAKREKLQEDKPTFKKEEIKDEKIKKDKEPKEEVKSFMDRKKGFTEVKSQNGEFMTHKLKHTENTFSRPGGRASVDTKEAEGAPQVEAGKRLEELRRRRGETESEEFEKLKQKQQEAALELEELKKKREERRKVLEEEEQRRKQEEADRKLREEEEKRRLKEEIERRRAEAAEKRQKMPEDGLSDDKKPFKCFTPKGSSLKIEERAEFLNKSVQKSSGVKSTHQAAIVSKIDSRLEQYTSAIEGTKSAKPTKPAASDLPVPAEGVRNIKSMWEKGNVFSSPTAAGTPNKETAGLKVGVSSRINEWLTKTPDGNKSPAPKPSDLRPGDVSSKRNLWEKQSVDKVTSPTKV | 1.5
